From patent US20170137818, “APTAMER INHIBITING BIOLOGICAL ACTIVITY OF AUTOTAXIN BY BINDING WITH AUTOTAXIN, AND USE THEREOF” (RIBOMIC INC., published 2017) come the findings set out here.

For data set [1], the target named is autotaxin (endogenous, human pooled serum) (Homo sapiens, UniProt Q13822 Q13822:36-863). As to the kind of experiment: inhibition; LPA production in serum, 5.0 uM.
Data set [2] concerns the target autotaxin (ENPP2/NPP2) (Homo sapiens, UniProt Q13822 Q13822:36-863). Put plainly: inhibition; LPA production, 0.10 uM aptamer, ~92% serum, 37C 3 h.

B1: 12(2) (ssDNA)
DNA: CCTGGACGGAACCAGAATACTTTTGGTCTCCAGG
modifications: 2'-OMe C30,C31
On to B1, for which the activity in data set [1] was found to be 80 % inhibition.

B2: 12(86) (ssDNA)
DNA: B1 DNA
modifications: 2'-OMe C7,G9,A14,G15,A19,C20,A32,G33,G34; PS after C28; idT 5' and 3'
With B2, the activity in data set [2] was determined as 57 % inhibition.

B3: 12(113) (ssDNA)
DNA: B1 DNA
modifications: 2'-OMe C7,G9,A14,G15,A19,C20,A32,G33,G34; PS after C30; idT 5' and 3'
With B3, in data set [2], the activity is 66 % inhibition.

B4: 12(19) (ssDNA)
DNA: B1 DNA
modifications: 2'-OMe C20
Consider B4, for which the activity in data set [1] amounted to 90 % inhibition.

B5: 12(5) (ssDNA)
DNA: B1 DNA
modifications: 2'-OMe T23,T24
Regarding B5, the activity in data set [1] was found to be 15 % inhibition.

B6: 12(107) (ssDNA)
DNA: B1 DNA
modifications: 2'-OMe C7,G9,A14,G15,A19,C20,A32,G33,G34; PS after C1; idT 5' and 3'
In data set [2], B6 gave an activity of 75 % inhibition.

B7: 12(17) (ssDNA)
DNA: B1 DNA
modifications: 2'-OMe T18
In turn, B7 came in with an activity in data set [1] of 83 % inhibition.

B8: 12(10) (ssDNA)
DNA: B1 DNA
modifications: 2'-OMe A11
As to B8, in data set [1], the activity was 26 % inhibition.

B9: 12(130) (ssDNA)
DNA: B1 DNA
modifications: 2'-OMe C7,G9,A14,G15,A19,C20,A32,G33,G34; P-methyl C1; idT 5' and 3'
In turn, B9 displayed an activity in data set [2] of 77 % inhibition.

B10: 12(129) (ssDNA)
DNA: B1 DNA
modifications: 2'-OMe C7,G9,A14,G15,A19,C20,A32,G33,G34; P-methyl T3; idT 5' and 3'
In data set [2], B10 yielded an activity of 73 % inhibition.

B11: 12(11) (ssDNA)
DNA: B1 DNA
modifications: 2'-OMe T27
As for B11, the activity in data set [1] is 38 % inhibition.

B12: 12(100) (ssDNA)
DNA: B1 DNA
modifications: 2'-OMe C7,G9,A14,G15,A19,C20,A32,G33,G34; PS after A17; idT 5' and 3'
In data set [2], B12 showed an activity of 80 % inhibition.

B13: 12(111) (ssDNA)
DNA: B1 DNA
modifications: 2'-OMe C7,G9,A14,G15,A19,C20,A32,G33,G34; PS after G5; idT 5' and 3'
In data set [2], B13 displayed an activity of 60 % inhibition.

B14: 12(109) (ssDNA)
DNA: B1 DNA
modifications: 2'-OMe C7,G9,A14,G15,A19,C20,A32,G33,G34; PS after T3; idT 5' and 3'
The molecule B14 yielded an activity in data set [2] of 68 % inhibition.

B15: 12(9) (ssDNA)
DNA: B1 DNA
modifications: 2'-OMe T29
In turn, B15 returned an activity in data set [1] of 78 % inhibition.

B16: 12(89) (ssDNA)
DNA: B1 DNA
modifications: 2'-OMe C7,G9,A14,G15,A19,C20,A32,G33,G34; P-methyl G26; idT 5' and 3'
The molecule B16 displayed an activity in data set [2] of 48 % inhibition.

B17: 12(16) (ssDNA)
DNA: B1 DNA
modifications: 2'-OMe A17
On to B17, for which, in data set [1], the activity worked out at 83 % inhibition.

B18: 12(14) (ssDNA)
DNA: B1 DNA
modifications: 2'-OMe G9
In data set [1], B18 showed an activity of 95 % inhibition.

B19: 12(20) (ssDNA)
DNA: B1 DNA
modifications: 2'-OMe T21
B19 returned an activity in data set [1] of 76 % inhibition.

B20: 12(121) (ssDNA)
DNA: B1 DNA
modifications: 2'-OMe C7,G9,A14,G15,A19,C20,A32,G33,G34; P-methyl T23; idT 5' and 3'
Molecule B20 came in with an activity in data set [2] of 80 % inhibition.

B21: 12(99) (ssDNA)
DNA: B1 DNA
modifications: 2'-OMe C7,G9,A14,G15,A19,C20,A32,G33,G34; PS after A16; idT 5' and 3'
In data set [2], B21 returned an activity of 81 % inhibition.

B22: 12(114) (ssDNA)
DNA: B1 DNA
modifications: 2'-OMe C7,G9,A14,G15,A19,C20,A32,G33,G34; PS after C31; idT 5' and 3'
In data set [2], B22 gave an activity of 75 % inhibition.

B23: 12(122) (ssDNA)
DNA: B1 DNA
modifications: 2'-OMe C7,G9,A14,G15,A19,C20,A32,G33,G34; P-methyl T22; idT 5' and 3'
In turn, B23 came in with an activity in data set [2] of 65 % inhibition.

B24: 12(110) (ssDNA)
DNA: B1 DNA
modifications: 2'-OMe C7,G9,A14,G15,A19,C20,A32,G33,G34; PS after G4; idT 5' and 3'
Regarding B24, the activity in data set [2] is 63 % inhibition.

B25: 12(12) (ssDNA)
DNA: B1 DNA
modifications: 2'-OMe C7
B25 registered an activity in data set [1] of 94 % inhibition.

B26: 12(112) (ssDNA)
DNA: B1 DNA
modifications: 2'-OMe C7,G9,A14,G15,A19,C20,A32,G33,G34; PS after T29; idT 5' and 3'
Regarding B26, the activity in data set [2] is 69 % inhibition.

B27: 12(91) (ssDNA)
DNA: B1 DNA
modifications: 2'-OMe C7,G9,A14,G15,A19,C20,A32,G33,G34; P-methyl C13; idT 5' and 3'
In data set [2], B27 had an activity of 58 % inhibition.

B28: 12(96) (ssDNA)
DNA: B1 DNA
modifications: 2'-OMe C7,G9,A14,G15,A19,C20,A32,G33,G34; P-methyl T29; idT 5' and 3'
B28 displayed an activity in data set [2] of 76 % inhibition.

B29: 12(104) (ssDNA)
DNA: B1 DNA
modifications: 2'-OMe C7,G9,A14,G15,A19,C20,A32,G33,G34; PS after T22; idT 5' and 3'
In the case of B29, the activity in data set [2] turned out to be 74 % inhibition.

B30: 12(106) (ssDNA)
DNA: B1 DNA
modifications: 2'-OMe C7,G9,A14,G15,A19,C20,A32,G33,G34; PS after C7; idT 5' and 3'
In turn, B30 showed an activity in data set [2] of 68 % inhibition.

B31: 12(90) (ssDNA)
DNA: B1 DNA
modifications: 2'-OMe C7,G9,A14,G15,A19,C20,A32,G33,G34; P-methyl G25; idT 5' and 3'
B31 came in with an activity in data set [2] of 63 % inhibition.

B32: 12(128) (ssDNA)
DNA: B1 DNA
modifications: 2'-OMe C7,G9,A14,G15,A19,C20,A32,G33,G34; P-methyl G5; idT 5' and 3'
Take B32: in data set [2], the activity is 78 % inhibition.

B33: 12(127) (ssDNA)
DNA: B1 DNA
modifications: 2'-OMe C7,G9,A14,G15,A19,C20,A32,G33,G34; P-methyl C30; idT 5' and 3'
For B33, in data set [2], the activity is 79 % inhibition.

B34: 12(116) (ssDNA)
DNA: B1 DNA
modifications: 2'-OMe C7,G9,A14,G15,A19,C20,A32,G33,G34; PS after G33; idT 5' and 3'
Molecule B34 displayed an activity in data set [2] of 72 % inhibition.

B35: 12(7) (ssDNA)
DNA: B1 DNA
modifications: 2'-OMe A14,G15
For the molecule B35, the activity in data set [1] was found to be 88 % inhibition.

B36: 12(6) (ssDNA)
DNA: B1 DNA
modifications: 2'-OMe G25,G26
In turn, B36 came in with an activity in data set [1] of 63 % inhibition.

B37: 12(125) (ssDNA)
DNA: B1 DNA
modifications: 2'-OMe C7,G9,A14,G15,A19,C20,A32,G33,G34; P-methyl A17; idT 5' and 3'
As to B37, in data set [2], the activity came out at 78 % inhibition.

B38: 12(3) (ssDNA)
DNA: B1 DNA
modifications: 2'-OMe A32,G33,G34
In the case of B38, the activity in data set [1] was 92 % inhibition.

B39: 12(95) (ssDNA)
DNA: B1 DNA
modifications: 2'-OMe C7,G9,A14,G15,A19,C20,A32,G33,G34; P-methyl A6; idT 5' and 3'
In data set [2], B39 displayed an activity of 64 % inhibition.

B40: 12(15) (ssDNA)
DNA: B1 DNA
modifications: 2'-OMe A10
In data set [1], B40 yielded an activity of 68 % inhibition.

B41: 12(21) (ssDNA)
DNA: B1 DNA
modifications: 2'-OMe G4,G5
Take B41: in data set [1], the activity came out at 84 % inhibition.

B42: 12(103) (ssDNA)
DNA: B1 DNA
modifications: 2'-OMe C7,G9,A14,G15,A19,C20,A32,G33,G34; PS after T21; idT 5' and 3'
Turning to B42, the activity in data set [2] was 88 % inhibition.

B43: 12(18) (ssDNA)
DNA: B1 DNA
modifications: 2'-OMe A19
The molecule B43 registered an activity in data set [1] of 93 % inhibition.

B44: 12(4) (ssDNA)
DNA: B1 DNA
modifications: 2'-OMe C12,C13
In data set [1], B44 showed an activity of 82 % inhibition.

B45: 12(120) (ssDNA)
DNA: B1 DNA
modifications: 2'-OMe C7,G9,A14,G15,A19,C20,A32,G33,G34; P-methyl T24; idT 5' and 3'
For B45, in data set [2], the activity stood at 67 % inhibition.

B46: 12(87) (ssDNA)
DNA: B1 DNA
modifications: 2'-OMe C7,G9,A14,G15,A19,C20,A32,G33,G34; PS after T23; idT 5' and 3'
On to B46, for which the activity in data set [2] was determined as 70 % inhibition.

B47: 12(108) (ssDNA)
DNA: B1 DNA
modifications: 2'-OMe C7,G9,A14,G15,A19,C20,A32,G33,G34; PS after C2; idT 5' and 3'
Consider B47, for which, in data set [2], the activity turned out to be 68 % inhibition.

B48: 12(101) (ssDNA)
DNA: B1 DNA
modifications: 2'-OMe C7,G9,A14,G15,A19,C20,A32,G33,G34; PS after T18; idT 5' and 3'
With B48, in data set [2], the activity is 81 % inhibition.

B49: 12(126) (ssDNA)
DNA: B1 DNA
modifications: 2'-OMe C7,G9,A14,G15,A19,C20,A32,G33,G34; P-methyl C31; idT 5' and 3'
B49: in data set [2], the activity stood at 77 % inhibition.

B50: 12(124) (ssDNA)
DNA: B1 DNA
modifications: 2'-OMe C7,G9,A14,G15,A19,C20,A32,G33,G34; P-methyl A16; idT 5' and 3'
On to B50, for which the activity in data set [2] worked out at 76 % inhibition.

B51: 12(115) (ssDNA)
DNA: B1 DNA
modifications: 2'-OMe C7,G9,A14,G15,A19,C20,A32,G33,G34; PS after A32; idT 5' and 3'
Molecule B51 came in with an activity in data set [2] of 77 % inhibition.

B52: 12(98) (ssDNA)
DNA: B1 DNA
modifications: 2'-OMe C7,G9,A14,G15,A19,C20,A32,G33,G34; PS after G15; idT 5' and 3'
B52 showed an activity in data set [2] of 76 % inhibition.

B53: 12(123) (ssDNA)
DNA: B1 DNA
modifications: 2'-OMe C7,G9,A14,G15,A19,C20,A32,G33,G34; P-methyl T21; idT 5' and 3'
Turning to B53, the activity in data set [2] was 74 % inhibition.

B54: 12(117) (ssDNA)
DNA: B1 DNA
modifications: 2'-OMe C7,G9,A14,G15,A19,C20,A32,G33,G34; PS after G8; 5' 40 kDa PEG (GL2-400GS2) via ssH linker; 3' idT
On to B54, for which, in data set [2], the activity worked out at 90 % inhibition.

B55: 12(8) (ssDNA)
DNA: B1 DNA
modifications: 2'-OMe A6
Take B55: in data set [1], the activity worked out at 69 % inhibition.

B56: 12(13) (ssDNA)
DNA: B1 DNA
modifications: 2'-OMe G8
In turn, B56 had an activity in data set [1] of 74 % inhibition.

B57: 12(102) (ssDNA)
DNA: B1 DNA
modifications: 2'-OMe C7,G9,A14,G15,A19,C20,A32,G33,G34; PS after C20; idT 5' and 3'
As for B57, in data set [2], the activity turned out to be 72 % inhibition.
